Key:
[1] = molecular target: in vitro translated 35S-labelled p53 (wild-type), P04637
[2] = molecular target: in vitro translated 35S-labelled mutant p53 K24R, P04637

B1: GST-Hades Ring protein (RP) (protein)
chain: RLKQMQEEFQEHEAQLLSRAKPEDRESLKSACVVCLSSFKSCVFLECGHVCSCTECYRALPEPKKCPICRQAITRVIPLYN
[1]
  in vitro ubiquitination of 35S-labeled p53 with E1 and several E2 enzymes, autoradiography: The 35S-labeled p53 was polyubiquitinated in an Ubc5a or Ubc5c-dependent manner
  in vitro ubiquitination of 35S-labelled p53, SDS-PAGE and autoradiography: WT p53 was ubiquitinated by Hades
  in vitro ubiquitination of p53 with E1, E2 (UbcH5c) and His-ubiquitin, anti-p53 immunoblot: The p53 ubiquitination was only induce by Hades
Mutant p53 6CKR, P04637
  in vitro ubiquitination of p53 lysine mutants, immunoblot: Hades was still able to ubiquitinate a form of p53 in which all six lysines was mutated (6CKR)
[2]
  in vitro ubiquitination of 35S-labelled p53 K24R, SDS-PAGE and autoradiography: the in vitro translated p53 K24R was not ubiquitinated by Hades

Reference: patent US20130157959
